T1: mIL2Rb ECD antigen (murine, UniProt P16297 27-240)
T1 construct: The immunogen was the ECD fused to human IgG1 hinge and Fc; also called ECD of IL2Rb (mouse)
T1 sequence: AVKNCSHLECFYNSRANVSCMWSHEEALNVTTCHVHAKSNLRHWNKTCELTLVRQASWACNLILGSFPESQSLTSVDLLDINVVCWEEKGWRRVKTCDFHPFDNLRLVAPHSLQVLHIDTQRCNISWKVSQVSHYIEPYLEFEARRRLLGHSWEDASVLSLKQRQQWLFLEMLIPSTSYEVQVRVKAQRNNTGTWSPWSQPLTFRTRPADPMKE

T2: hIL2Rg ECD antigen (human, UniProt P31785 23-262)
T2 construct: The immunogen was the ECD fused to human IgG1 hinge and Fc; also called ECD of IL2Rg (human); human IL-2Rγ
T2 sequence: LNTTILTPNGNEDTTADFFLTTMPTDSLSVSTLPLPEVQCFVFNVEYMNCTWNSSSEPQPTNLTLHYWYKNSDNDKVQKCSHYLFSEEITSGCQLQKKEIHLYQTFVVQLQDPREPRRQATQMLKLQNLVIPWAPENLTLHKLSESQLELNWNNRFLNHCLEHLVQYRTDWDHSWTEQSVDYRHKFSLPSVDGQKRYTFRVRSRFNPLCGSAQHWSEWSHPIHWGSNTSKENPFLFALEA

B1: DR1454 (VHH)
VHH: EVQLVESGGGLVQAGGSLRLFCASSERTFGDYPIGWFRQAPGKEREFVASISWGGSRQYYTDSVKGRFTITRDNDKNTVYLQMNSLKPEDTAVYYCWVRVRLSNTALLQRYWGQGTLVTVSS
notes: As a his-tagged phage clone periplasmic extract
B2: DR1459 (VHH)
VHH: EVQLVESGGGLVQAGGSLRLSCAASGRTISTYAMVWFRQASGKEREFVGVISRSGDRTYYADSVKGRFTISRDNLGNIVRLQLNSLKPEDTAVYYCARGGYTGIETITARGRGTLVTVSS
notes: as for B1
B3: DR1448 (VHH)
VHH: EVQLVESGGRLVQAGDSLRLSCVASGKSFSDYPLGWFRQAPGKAREYVAHISWSGKLTYYRSTVKGRFTISRDNAENKLYLQMNALKPEDTAVYYCAAMKLFNYGGRYCVLKPLTMYQQWSQGTQVTVSS
notes: as for B1
B4: DR1461 (VHH)
VHH: EVQLVESGGRLVQAGDSLRLSCVASGRIFNTYSMGWFRQVPGKERDFVAAIRWSGGTTYYTDSVKGRFTISRDNAKNTVYLQMKDLKPQDTAVYYCAAVPSGRSWYGRNRYWGQGTLVTVSS
notes: as for B1
B5: DR1449 (VHH)
VHH: EVQLVESGGGLVQAGGSLRLSCAASGRSFSGYAIGWFRQAPGKEREFVAVVSWRGSSTYYADSVKGRFTISRDNAKGTVYLQMNSLKPEDTAAYYCAAVPSGRSWYGRNRYWGQGTQVTVSS
notes: as for B1
B6: DR1458 (VHH)
VHH: EVQLVESGGGLVQAGGSLRLSCAASGRTLSTYAMGWFRQAPGKEREFVAAIRWASGRTYYGDSVKGRFTISRDSAKNTVYLQMNSLKPEDTAVYYCAARSRPYLNYGDFGYWGQGTQVTVSS
notes: as for B1
B7: DR1472 (VHH)
VHH: EVQLVESGGGLVRAGDSLRLSCAVSGLASSSFFMTWFRQGQGKEREFVATISWTGRTSYYAASVKGRFTVSRDNAKNTVYLQMNSLNSEDTAVYFCAAYPRTLVRNREPIHWGQGTQVTVSS
notes: as for B1
B8: DR1457 (VHH)
VHH: EVQLVESGGRLVQAGDSLRLSCVASGRIFNTYSMGWFRQVPGKERDFVAAIRWSGGTTYYTDSVKGRFTISRDNAKNTVYLQMNSLKPEDTAVYYCYLRVFARRYWGQGTQVTVSS
notes: as for B1
B9: DR1468 (VHH)
VHH: EVQLVESGGGLVQAGGSLRLSCTTSGRTGTHYAMGWFRQAPGKEREFVSLILWNGEFTTYKDSVKGRFTISREKGENTVYLQMNSLKPEDTAVYYCYLRVFARRYWGQGTQVTVSS
notes: as for B1
B10: DR1451 (VHH)
VHH: EVQLVESGGGLVQAGDSLRLSCAASERFSWGNYAMYWFRQAPGKEREFVAAIGRNSMATYYRDSAKGRFVISRDNAKNTLYLEMNALKPEDTARYYCAAKFMVADGWSRQYDYWGQGTLVTVSS
notes: as for B1
B11: DR1452 (VHH)
VHH: EVQLVESGGGLVQAGGALRLSCAASGRTFRRFMGWFRQAPGKEREFVAAINWPGGGTYYGDSVKGRFTISRDNAKNTVYLQMNSLKPEDTANYYCAATRKYNLYKFADWGQGTQVTVSS
notes: as for B1
B12: DR1450 (VHH)
VHH: EVQLVESGGGLVQAGGSLRLSCVISGRSINYYRMGWFRQAPGNRRQFVAAIKWGGDGVYADSVKGRFTISRDNTKNTVYLQMDSLKPEDTGTYYCAKMPLSSWSRGGYLEVWGQGTLVTVSS
notes: as for B1
B13: DR1469 (VHH)
VHH: EVQLVESGGGLVQPGGSLRLSCEVSGFTFSNYWMYWIRQAPGKGLEWVSHINTNGGNTYYRHSVKGRFTISRDNAKNTLYLQMNGLKSEDTAVYYCAKANSDVGLGYYGMDYWGKGTQVTVSS
notes: as for B1
B14: DR1460 (VHH)
VHH: EVQLVESGGGLVQTGDSLRLSCAAPESIFNNNAVYWYRQFPGKEREYVGLITIGGRTGYADSVKGRFTISRDNANNVAFLQMDSLKPEDTAVYYCATGLKFGFNFYSKTAYDYWGQGTQVTVSS
notes: as for B1
B15: DR1463 (VHH)
VHH: EVQLVESGGSVVQPGDSLRLACTASGRSFRSYAIGWFRQASGKERVFVAAISYDGRRTYYGRSLKDRFTISRDNAKNTVYLQMNSLKPEDTAVYYCATHRSGTMFARYGMDYWGKGTLVTVSS
notes: as for B1
B16: DR1462 (VHH)
VHH: EVQLVESGGGLVQAGGSLRLSCVSSGRTFGYVAMGWFRQAPGKEREFVASINWSGGSTAYADSVKGRFTISRDNAKNTVYLQMNSLKPEDTAVYYCAGSTRFYIATMEQGSYDYWGQGTQVTVSS
notes: as for B1
B17: DR1471 (VHH)
VHH: EVQLVESGGGLVQAGGSLRLSCVFSGRAPASYAMAWFRQAVGNEREFVAAINWSGRRTYYADSVKGRFTISKDNAQNTAYLQMTNLEPEDTATYYCNAYLSGTYYWGQGTQVTVSS
notes: as for B1
B18: DR1467 (VHH)
VHH: EVQLVESGGGLVQAGDSLRLSCAASGRISNYAMGWFRQAPGKEREFVAVITRSGGSTYYADSVKGRFTISRDNGKNTIDLQMNRLKPEDTAVYYCAVRRSQKLVTFGAEYPWWGQGTLVTVSS
notes: as for B1
B19: DR857 (VHH)
VHH: QVQLQESGGGLVQPGGSLRLSCAASGFTFSLYDMSWVRQAPGKGLEWVSGINSGGYSTYYAASAKGRFTISRDNAKNTLYLQLSSVKTEDTAMYYCAQRGLTSPYVIPNIRLQGTQVTVSS
notes: as for B1
B20: DR1466 (VHH)
VHH: EVQLVESGGGLVRAGGSLRLSCAASGFTFSTDWMYWVRRAPGKGLEWVSLINTDGTSTSYTKSVKGRFTVSRDNAKNTLYLQMNSLKPEDTALYYCARGRTYWFYAMDYWGKGTQVTVSS
notes: as for B1
B21: DR1465 (VHH)
VHH: EVQLVESGGGLMQAGGALRLSCTASGPTFTSYTMGWFRQSPGKRREFVAVISKGGRTYYADSVKGRFTISRDNAKNTFYLQMSSLKPEDTAVYYCAGQRVGATSKYEYDYWGQGTQVTVSS
notes: as for B1
B22: DR1456 (VHH)
VHH: EVQLVESGGGLVQAGGSLRLSCAASGLTFRTYYMSWFRQAPGKEREFVGVISWIGSTTLYADSVKGRFSISRDNAKNTVYLQMNNLKPEDTAVYYCAANFLREGKREPRYWGQGTQVTVSS
notes: as for B1
B23: DR1455 (VHH)
VHH: EVQLVESGGGLVQTGGSLRLSCAASGRTFNSYAMGWFRQSPGKEREFVAVITWNSGRTYYADSVKGRFTISRDNAKNTVYLQMNSLKPEDTAVYYCNSAPWAHNREWGQGTLVTVSS
notes: as for B1
B24: DR1464 (VHH)
VHH: EVQLVESGGGLVQAGGSLRLSCAASGRTFSSYAMGWFRQAPGKEREFVTAISRSGGYTSYADSVKGRFTISRDNAKNTVYLQMNSLKPEDTAVYYCAKLIAPFYYGMDYWTKGTQVTVSS
notes: as for B1
B25: DR1453 (VHH)
VHH: EVQLVESGGRLVQAGDSLRLSCVASGRIFNTYSMGWFRQVPGKERDFVAAIRWSGGTTYYTDSVKGRFTISRDNAKNTVYLQMNSLKPEDTAVYYCWVRVRLSNTALLQRYWGQGTLVTVSS
notes: as for B1
B26: DR1470 (VHH)
VHH: EVQLVESGGGSVQPGGSLRLSCAAPESIFNNNAVYWYRQFPGKEREYVGLITIGGRTGYADSVKGRFTISRDNANNVAFLQMDNLKPEDTAVYYCAARPGYWSSSYDYWGQGTQVTVSS
notes: as for B1
B27: hIL2Rg_VHH-23 (VHH)
VHH: QVQLQESGGGLVQPGGSLRLSCAASGFSFSSYPMTWARQAPGKGLEWVSTIASDGGSTAYAASVEGRFTISRDNAKSTLYLQLNSLKTEDTAMYYCTKGYGDGTPAPGQGTQVTVSS
notes: as for B1
B28: hIL2Rg_VHH-1 (VHH)
VHH: QVQLQESGGGSVQAGGSLRLSCAASGFTFDDSDMGWYRQAPGNECDLVSTISSDGSTYYADSVKGRFTISQDNAKNTVYLQMDSVKPEDTAVYYCAADFMIAIQAPGAGCWGQGTQVTVSS
notes: as for B1
B29: hIL2Rg_VHH-7 (VHH)
VHH: QVQLQESGGGLVQPGGSLRLSCAASGFTFDDREMNWYRQAPGNECELVSTISSDGSTYYADSVKGRFTISQDNAKNTVYLQMDSVKPEDTAVYYCAADFMIAIQAPGAGCWGQGTQVTVSS
notes: as for B1

For one test, the target named is T1, mIL2Rb ECD antigen. In words: PE-ELISA of phage clones. A general note: In an ELISA, binding on a coated surface is turned into a signal by an enzyme label.
As for B1, the binding result is “binds”. In the case of B2, the binding result is “binds”. For the molecule B3, the binding result is “binds”. As to B4, the binding result is on record as “binds”. On the same count and under the same terms, with B5 the entry was “binds”. For the molecule B6, the binding result is on record as “binds”. The same measure, in the same setting: under B7 stands “binds”; under B8, “binds”.

As for B9, the binding result is “binds”. Regarding B10, the binding result is given as “binds”.

For the molecule B11, the binding result is “binds”. B12: the binding result is “binds”. On the same count and under the same terms, under B13 stands “binds”. Same read-out and setting: with B14 the entry was “binds”; with B15, “binds”; with B16, “binds”. Take B17: the binding result was “binds”. On the same count and under the same terms, with B18 the entry was “binds”; with B19, “binds”. As for B20, the binding result is given as “binds”. B21: the binding result is “binds”. Turning to B22, the binding result is recorded as “binds”. Take B23: the binding result is reported as “binds”. Same read-out and setting: under B24 stands “binds”. As to B25, the binding result was “binds”.

Take B26: the binding result is on record as “binds”.

The next test concerns the target T2, hIL2Rg ECD antigen. Nature of the test: PE-ELISA of phage clones.
As for B27, the binding result was “binds”. Take B28: the binding result is “binds”. For the molecule B29, the binding result was “binds”.

Source of the values: patent US20250019453A1 (SYNTHEKINE, published 2025).
